We go through 1 substance from paper PMC4024219.

In the assay the target is FKBP-caspase-8 (Site-1 mutant) (human) (UniProt Q14790).

As for “FRB-FLIPL (wt) (from UniProt O15519 188-480)”, the activity after heterodimerization (with AP21967), relative to Mature caspase-8 is 20%.
